# Experimental data published in IntAct's records for PubMed 12502741.
# Molecular target: rb_human RB1 (UniProt P06400)
# Sequence (P06400 whole entry): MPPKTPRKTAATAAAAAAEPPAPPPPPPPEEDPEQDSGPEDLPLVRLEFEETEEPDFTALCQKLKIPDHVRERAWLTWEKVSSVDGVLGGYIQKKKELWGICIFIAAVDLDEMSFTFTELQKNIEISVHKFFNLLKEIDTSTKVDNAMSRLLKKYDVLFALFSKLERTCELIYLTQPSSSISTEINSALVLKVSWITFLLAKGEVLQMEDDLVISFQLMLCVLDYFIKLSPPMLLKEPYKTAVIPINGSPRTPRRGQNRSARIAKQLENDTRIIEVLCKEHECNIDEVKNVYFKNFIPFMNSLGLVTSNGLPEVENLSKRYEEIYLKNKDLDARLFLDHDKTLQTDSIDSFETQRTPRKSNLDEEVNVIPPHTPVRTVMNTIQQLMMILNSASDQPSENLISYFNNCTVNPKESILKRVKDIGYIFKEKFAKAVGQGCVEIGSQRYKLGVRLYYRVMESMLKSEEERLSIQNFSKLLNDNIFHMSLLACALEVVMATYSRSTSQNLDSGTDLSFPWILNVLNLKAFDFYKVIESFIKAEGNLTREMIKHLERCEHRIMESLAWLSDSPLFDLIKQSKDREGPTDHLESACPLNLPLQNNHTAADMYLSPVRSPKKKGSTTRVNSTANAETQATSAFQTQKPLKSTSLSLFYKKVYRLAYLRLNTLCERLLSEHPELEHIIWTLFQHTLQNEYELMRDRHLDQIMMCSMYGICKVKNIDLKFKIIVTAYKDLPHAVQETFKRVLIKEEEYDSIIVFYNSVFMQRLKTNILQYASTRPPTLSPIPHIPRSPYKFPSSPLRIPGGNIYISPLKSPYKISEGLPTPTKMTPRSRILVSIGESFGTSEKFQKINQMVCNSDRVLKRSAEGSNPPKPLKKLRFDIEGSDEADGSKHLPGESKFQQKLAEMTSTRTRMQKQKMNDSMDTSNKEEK
# Sequence of Transcription factor E2F2 (Homo sapiens), Q14209 G421S (Q14209 whole entry G421S): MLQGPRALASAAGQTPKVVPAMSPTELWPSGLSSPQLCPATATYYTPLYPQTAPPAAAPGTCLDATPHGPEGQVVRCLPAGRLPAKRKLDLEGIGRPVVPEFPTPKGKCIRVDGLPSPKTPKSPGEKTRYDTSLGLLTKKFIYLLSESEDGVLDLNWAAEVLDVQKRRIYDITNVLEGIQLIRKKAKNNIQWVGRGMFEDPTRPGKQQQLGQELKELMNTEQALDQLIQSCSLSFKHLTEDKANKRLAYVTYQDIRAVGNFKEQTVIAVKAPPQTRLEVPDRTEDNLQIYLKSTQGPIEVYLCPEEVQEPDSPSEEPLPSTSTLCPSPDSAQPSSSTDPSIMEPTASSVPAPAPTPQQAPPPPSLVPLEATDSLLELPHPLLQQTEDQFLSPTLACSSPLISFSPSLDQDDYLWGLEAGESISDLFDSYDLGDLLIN
# Sequence of Transcription factor E2F2 (Homo sapiens), Q14209 E420A (Q14209 whole entry E420A): as the sequence (Q14209 whole entry G421S) above, with E420A, S421G counted along it
row,Substance,effect of a mutation on the interaction
1,"Transcription factor E2F2 (Homo sapiens), Q14209 G421S",decreasing interaction strength
2,"Transcription factor E2F2 (Homo sapiens), Q14209 E420A",decreasing interaction strength
